The values below come from PMC10867769, “Grafting the ALFA tag for structural studies of aquaporin Z” (Journal of Structural Biology: X, 2024).

The target in data set [1] is octameric (AqpZ-ALFA)4(nB)4 complex (E. coli) (UniProt P60844). As to the kind of experiment: cryo-EM structure; AqpZ-ALFA incubated with five-fold molar excess of nB in C8E4, complex purified (StrepTrap, Superdex 200), 10 mg/mL, 5-fold molar excess of 18:1 cardiolipin (TOCDL); prepared at room temperature, grid at 5 °C; D4 symmetry, 1.9 Å.
Data set [2] concerns the molecule itself. Described as above.

What is called stoichiometry N is a count of units in the complex or per binding partner. For the molecule “octameric (AqpZ-ALFA)4(nB)4 complex (from UniProt P60844 1-227)”, the stoichiometry N in data set [1] worked out at 2.

B1: AqpZ-ALFA (E. coli aquaporin Z with the ALFA tag grafted onto its C-terminus, flexible linker and Strep-tag II) (other)
chain: MFRKLAAECFGTFWLVFGGCGSAVLAAGFPELGIGFAGVALAFGLTVLTMAFAVGHISGGHFNPAVTIGLWAGGRFPAKEVVGYVIAQVVGGIVAAALLYLIASGKTGFDAAASGFASNGYGEHSPGGYSMLSALVVELVLSAGFLLVIHGATDKFAPAGFAPIAIGLALTLIHLISIPVTNTSVNPARSTAVAIFQGGWALEQLWFFWVVPIVGGIIGGLIYRTLLRASRLEEELRRRLTEPGGGPG
notes: Aquaporin Z (AqpZ), E. coli, UniProt P60844; from the start up to the printed C-terminal residues IYRTLL; the last residues of the natural protein are replaced by the graft; followed by aswshpqfek (Strep-tag II, written as a tag); Tetramer; also called AqpZ-ALFA-St; source: E. coli BL21-A1, purified (octyl glucoside extraction of membranes, StrepTrap, Superdex 200 in C8E4); not shown: Strep-tag …
For B1, in data set [2], the “stoichiometry N” value came to 4.
